Measurements: patent US20260078175A1 (Boehringer Ingelheim, published 2026)
Numbering of substitutions follows the chain as printed.

Tests used:
[1] = biological target: Cynomolgus Sema3A (cynomolgus); test: SPR (GLM sensorchip), antibody captured on Human Fab Binder, Sema3A as analyte, 1:1 Langmuir fit
[2] = biological target: Cynomolgus Sema3A (cynomolgus); test: SPR (BioRad GLM chip), antibody captured on goat anti-human IgG, Sema3A as analyte, 1:1 Langmuir fit
[3] = biological target: T1, Human semaphorin 3A (Sema3A) (human, UniProt Q14563 21-771); test: SPR (GLM sensorchip), antibody captured on Human Fab Binder, Sema3A as analyte, 1:1 Langmuir fit
T1 construct: also called human Sema3A; HuSema3A
T1 sequence: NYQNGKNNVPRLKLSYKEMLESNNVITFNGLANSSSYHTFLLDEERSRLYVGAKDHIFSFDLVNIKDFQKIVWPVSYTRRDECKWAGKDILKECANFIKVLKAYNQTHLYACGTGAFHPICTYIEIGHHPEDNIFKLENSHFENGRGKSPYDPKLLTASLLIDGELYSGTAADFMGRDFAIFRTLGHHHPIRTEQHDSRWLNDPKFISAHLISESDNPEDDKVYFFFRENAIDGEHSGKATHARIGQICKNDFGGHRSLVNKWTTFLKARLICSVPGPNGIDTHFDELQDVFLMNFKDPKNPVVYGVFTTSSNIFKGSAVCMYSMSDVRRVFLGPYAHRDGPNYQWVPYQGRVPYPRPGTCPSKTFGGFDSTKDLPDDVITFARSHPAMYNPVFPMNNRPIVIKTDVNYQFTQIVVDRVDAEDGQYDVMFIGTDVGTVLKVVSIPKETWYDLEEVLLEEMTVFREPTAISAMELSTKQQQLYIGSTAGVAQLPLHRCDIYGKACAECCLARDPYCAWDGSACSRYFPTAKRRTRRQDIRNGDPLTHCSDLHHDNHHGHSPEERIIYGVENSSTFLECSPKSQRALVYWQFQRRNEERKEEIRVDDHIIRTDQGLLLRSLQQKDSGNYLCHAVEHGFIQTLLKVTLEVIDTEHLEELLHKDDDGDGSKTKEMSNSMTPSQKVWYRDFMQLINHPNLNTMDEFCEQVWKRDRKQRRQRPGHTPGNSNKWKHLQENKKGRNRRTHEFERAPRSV
Description: (§1) The running buffer for this experiment and all dilutions (except where stated) were done in PBS-T-EDTA with 0.01% Tween20 [100 ul of 100% Tween20 was added to 2L of PBS-T-EDTA to make final Tween 20 concentration of 0.01%]. The GLM sensorchip was normalized and pre-conditioned as per the manufacturer's recommendations. The sensorchip was activated with equal mixture of EDC/s-NHS in the horizontal direction for 300 sec at a flow rate of 30 μl/min and immobilized with Human Fab Binder (10 μg/ml in 10 mM acetate pH 5.0) in the horizontal direction for 300 sec at a flowrate of 30 μl/min resulting in ˜6739-7414 RU of Human Fab Binder on the surface. The sensorchip was deactivated with 1M ethanolamine HCl in the horizontal direction for 300 sec at a flowrate of 30 μl/min. The sensorchip was stabilized with 18 sec of 10 mM glycine, pH 2.1 at a flowrate of 100 μl/min 1 time horizontally and 1 time vertically.
(§2) The inventors tested an exemplary antibody according to the invention (clone I). Said antibody (0.5 μg/ml) was captured on the Human Fab Binder surface vertically for 300 sec at a flowrate of 25 μl/min resulting ˜180 RU capture level. The baseline was stabilized by injecting PBS-T-EDTA for 60 sec at a flowrate of 40 μl/min horizontally. The analyte was injected horizontally over the captured antibody for 600 sec at a flowrate of 40 μl/min and a dissociation for 7200 sec. The concentrations of the analytes were 0 nM, 0.625 nM, 1.25 nM, 2.5 nM, 5 nM, and 10 nM. The surface was regenerated by injecting 10 mM glycine, pH 2.1 for 18 sec at a flowrate of 100 μl/min one time horizontally and one time vertically. PBS-T-EDTA was injected for 60 sec at a flowrate of 25 μl/min one time vertically.
(§3) The interspot (interactions with sensor surface) and blank (PBS-T-EDTA with 0.01% Tween20 or 0 nM analyte) were subtracted from the raw data.

[4] = biological target: T2, Mouse Sema3A (mouse, UniProt O08665 21-772, limits assumed); test: as above
T2 construct: Construct not described
T2 sequence (looked up): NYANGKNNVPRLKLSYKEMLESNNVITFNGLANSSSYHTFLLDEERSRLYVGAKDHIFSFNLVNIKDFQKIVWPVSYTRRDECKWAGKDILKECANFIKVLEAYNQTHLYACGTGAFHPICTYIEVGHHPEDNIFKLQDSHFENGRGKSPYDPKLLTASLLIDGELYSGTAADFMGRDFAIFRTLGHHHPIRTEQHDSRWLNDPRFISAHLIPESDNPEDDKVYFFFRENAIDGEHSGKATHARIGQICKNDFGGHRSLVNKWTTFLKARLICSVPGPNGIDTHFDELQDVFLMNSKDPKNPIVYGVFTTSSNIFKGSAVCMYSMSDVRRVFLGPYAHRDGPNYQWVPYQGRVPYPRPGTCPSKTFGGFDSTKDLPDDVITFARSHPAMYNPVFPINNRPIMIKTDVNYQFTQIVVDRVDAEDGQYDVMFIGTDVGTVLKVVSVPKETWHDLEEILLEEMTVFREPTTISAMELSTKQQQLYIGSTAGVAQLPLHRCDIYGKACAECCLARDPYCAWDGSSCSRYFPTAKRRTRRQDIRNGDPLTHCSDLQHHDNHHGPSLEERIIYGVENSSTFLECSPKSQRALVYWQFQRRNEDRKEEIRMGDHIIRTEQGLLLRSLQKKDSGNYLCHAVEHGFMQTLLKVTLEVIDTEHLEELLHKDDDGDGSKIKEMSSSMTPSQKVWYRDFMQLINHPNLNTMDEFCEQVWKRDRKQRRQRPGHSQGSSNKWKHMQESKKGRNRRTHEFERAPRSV
Description: as §1, §2, §3

[5] = biological target: T3, Rat Sema3A (rat, UniProt Q63548 21-772, limits assumed); test: as above
T3 construct: Construct not described
T3 sequence (looked up): T2 sequence (looked up) with E102K, I455V, P559H, M604V, I669T
Description: as §1, §2, §3

[6] = biological target: T4, Rabbit Sema3A (rabbit, UniProt G1T285 21-770); test: as above
T4 construct: Construct not described
T4 sequence: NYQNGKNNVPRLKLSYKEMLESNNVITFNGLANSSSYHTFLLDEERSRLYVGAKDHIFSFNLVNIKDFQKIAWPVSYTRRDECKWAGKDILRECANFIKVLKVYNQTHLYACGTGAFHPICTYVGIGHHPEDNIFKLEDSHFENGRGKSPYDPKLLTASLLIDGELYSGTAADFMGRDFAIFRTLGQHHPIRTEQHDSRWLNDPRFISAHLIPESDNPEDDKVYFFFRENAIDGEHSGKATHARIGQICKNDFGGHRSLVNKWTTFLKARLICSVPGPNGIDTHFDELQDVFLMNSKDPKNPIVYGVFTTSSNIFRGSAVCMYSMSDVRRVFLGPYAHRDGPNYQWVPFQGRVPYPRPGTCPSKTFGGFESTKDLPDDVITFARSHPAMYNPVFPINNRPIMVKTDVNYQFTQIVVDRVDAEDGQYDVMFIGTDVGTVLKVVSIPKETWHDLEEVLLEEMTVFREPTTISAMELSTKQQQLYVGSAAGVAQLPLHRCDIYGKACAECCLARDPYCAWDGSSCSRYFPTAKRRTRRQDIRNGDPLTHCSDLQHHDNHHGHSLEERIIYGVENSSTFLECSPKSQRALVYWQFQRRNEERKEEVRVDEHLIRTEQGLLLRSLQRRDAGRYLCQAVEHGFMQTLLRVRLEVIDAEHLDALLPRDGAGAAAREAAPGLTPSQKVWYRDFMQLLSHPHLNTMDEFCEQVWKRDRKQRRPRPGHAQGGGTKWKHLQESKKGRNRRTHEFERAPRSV
Description: as §1, §2, §3

[7] = biological target: T1, Human semaphorin 3A (Sema3A); test: SPR (BioRad GLM chip), antibody captured on goat anti-human IgG, Sema3A as analyte, 1:1 Langmuir fit
[8] = biological target: T2, Mouse Sema3A; test: as above
[9] = biological target: T3, Rat Sema3A; test: as above
[10] = biological target: T4, Rabbit Sema3A; test: as above
[11] = biological target: T1, Human semaphorin 3A (Sema3A); test: SPR (BioRad GLM chip), antibody captured on anti-human Fab antibody, human Sema3A as analyte, 1:1 Langmuir fit
Description: A high surface density of anti-human Fab antibody (GE Healthcare) was immobilized over a GLM chip (BioRad) via direct amine coupling over 6 horizontal channels according to the BioRad manufacturer's manual.
The antibody of the invention (clone 1) and the Chiome antibodies were captured over the anti-human Fab antibody surface over 5 of 6 vertical channels with a minimum surface density for the kinetic binding assay. Human Sema3A was prepared in PBS-T-EDTA buffer (BioRad) at concentrations of 100, 50, 25, 12.5, 10, 6.25, 5, 2.5, 1.25, 0.625 and 0 nM. A PBS-T-EDTA buffer injection was used as a double reference for the kinetic data analysis. Each of the human Sema3A solutions and PBS-T-EDTA buffer were injected simultaneously over the 6 horizontal channels for 10 min at a flow rate of 40 μL/min followed by 2 hr dissociation phase. The surfaces were regenerated by an 18 sec injection of 10 mM pH 2.1 glycine HCl (GE Healthcare) at a flow rate of 100 μL/min followed by an injection of 60 sec PBS-T-EDTA at a flow rate of 25 μL/min.

Kd [1]: 0.028 nM | Kd [2]: 0.035 nM | Kd [3]: 0.029 nM | Kd [4]: 0.027 nM | Kd [5]: 0.027 nM | Kd [6]: 0.042 nM | Kd [7]: 0.0347 nM | Kd [8]: 0.035 nM | Kd [9]: 0.0235 nM | Kd [10]: 0.0401 nM | Kd [11]: 0.032 nM
B1: Antibody of the invention (clone I) (antibody, human IgG1, kappa, L234A L235A, V domains shown)
VH: EVQLVESGGGLVQPGGSLRLSCAASGFTFSSYYMSWVRQAPGKGLEWVSTIIKSGGYAYYPDSVKDRFTISRDNSKNTLYLQMSSLRAEDTAVYYCVRGGQGAMDYWGQGTTVTVSS
VL: EIVLTQSPATLSLSPGERATLSCRASQSIGDYLHWYQQKPGQAPRLLIKYASQSISGIPARFSGSGSGTDFTLTITSLEPEDFAVYYCQQGYSFPYTFGGGTKLEIKR
notes: also called clone 1; anti-Sema3A antibody of the invention
